The data set deals with CC(C)=CCC/C(C)=C/CC/C(C)=C/CC/C(C)=C/COP(=O)(O)OP(=O)(O)O. Put plainly: purified protein. The note with it: 50 mM HEPES pH 7.0, 100 mM KCl, 0.1 mM MgCl2, 10% glycerol, 30 °C, 1-25 µM GGPP, 30 s, product (-)-kolavenyl diphosphate.

One substance from article PMC5441855 can be followed below.

Consider SdKPS (Tr-SdKPS) (Salvia divinorum), for which the Km was 1.9 ± 0.66 µM and the kcat turned out to be 0.88 ± 0.11 s⁻¹.
